Source: patent US5837499A, “DNA encoding C5A receptor antagonists having substantially no agonist activity and methods of expressing same” (priority 1995, dated 1998)

Experiments:
C5a receptor [1] = target: T1, C5a receptor (Homo sapiens, UniProt P21730); assay: Receptor binding assay: displacement of [125I]Bolton-Hunter-labelled C5a from PMNL membranes; details: Table 4, [125I]BH-C5a 4.0 pM, 120 min at 4° C., Cheng-Prusoff
T1 construct: Neutrophils were purified from human peripheral blood; endogenous in cells; host or cells: neutrophils from human peripheral blood
T1 sequence (P21730 1-350): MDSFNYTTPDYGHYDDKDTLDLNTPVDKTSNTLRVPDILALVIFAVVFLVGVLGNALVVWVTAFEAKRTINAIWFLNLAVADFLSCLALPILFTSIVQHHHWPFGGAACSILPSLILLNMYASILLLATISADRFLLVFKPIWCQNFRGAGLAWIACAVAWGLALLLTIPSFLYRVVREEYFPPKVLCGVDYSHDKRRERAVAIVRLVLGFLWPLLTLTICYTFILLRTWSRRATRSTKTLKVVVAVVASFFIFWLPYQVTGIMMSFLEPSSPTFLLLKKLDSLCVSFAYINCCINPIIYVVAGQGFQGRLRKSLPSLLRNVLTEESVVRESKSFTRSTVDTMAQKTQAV
Experimental: C5a and C5a receptor antagonists were tested for their affinity for the C5a receptor. […] PMNLs were resuspended in Hanks balanced salt solution, without Ca^++ and Mg^++ and which contained 10 mM HEPES; at pH 7.3, 2.5 mM MgCl2, 100 units/ml DNAse I, 0.1 mM PMISF, 10 μg/ml aprotonin and 10 μg/ml leupeptin. They were then equilibrated at 400 psi for 20 min at 4° C. in a nitrogen cavitation bomb. After evacuation into 3 volumes 0.5 M KHCO3 containing 25 mM EDTA and the protease inhibitors listed above, the gelatinous material was removed with forceps and the mixture was centrifuged at 400×g for 10 min at 4° C. The resulting supernatant was centrifuged at 50,000×g for 60 min at 4° C. The pellets from the aliquots representing 200×10^6 cells were stored at -70° C. For binding studies, these membranes were resuspended at an equivalent of 20×10^6 cells/ml in 50 mM HEPES at pH 7.3, containing 1 mM CaCl2, 5 mM MgCl2, 0.1 mM PMSF, 0.1% bacitracin and 0.5% BSA.
Nonspecific binding was determined in the presence of 10 nM unlabelled C5a. The binding reaction was initiated by the addition of the PMNL membranes and was continued for 120 min at 4° C. Bound and free radioactivity were separated by vacuum filtration through GF/C glass fiber filters (Whatman), pretreated for 90 min with 0.05% PEI (polyethyleneimine) using a Cell Harvester (Brandel, Gaithersburg, Md.). Filters were washed with 3×5 ml of ice-cold 5 mM Tris buffer at pH 7.4 and counted in a multiwell Gamma counter (Genesys). Data were analyzed using the non-linear regression analysis program, RS/1 (Bolt, Beranek and Newman, Boston) and expressed as IC50 values. The results are set forth below in Table 4 as Ki values using the Cheng-Presoff equation. See Braunwalder et al., supra

C5a receptor [2] = target: T1, C5a receptor; assay: C5a induced Ca++ rise in fura-2 loaded neutrophils (antagonist IC50 / agonist EC50); type: cell-based; details: highest concentration tested; agonist activity was not detected
From the text: The antagonism of the instant C5a analogues may be quantified as an IC50 in the calcium rise assay disclosed in Agents and Actions 21:375-378 (1987), described in detail in Example 7.
See Hugli et al., CRC Crit. Rev. Immunol. 1:321-326 (1981) and PCT WO 92/10205. A quantitative measure of this property may also be obtained using the calcium rise assay disclosed in Seligmann et al., supra, also described in Example 7. EC50 is a measure of agonistic activity. […] Applicants have not detected agonist activity of the instant C5a analogues up to a concentration of at Least about 8.0×10^-7 M, and preferably at least about 3.0×10^-6 M in the same calcium rise assay.
Recombinant human C5a was dissolved in Hanks buffer containing 0.01% Tween-20, and all stock dilutions of C5a were made in this buffer. The acetoxymethyl ester of fura-2 (fura 2AM, Molecular Probes) was dissolved in DMSO. Neutrophils were purified from human peripheral blood by sedimentation in 6% hetastarch (HESPAN, DuPont, Waukegan, Ill.), followed by counter flow elutriation as described in Chapman-Kirkland et al., J. Immunol. Meth. 142:95-104 (1991). Purified cells (2×10^6 /ml) were mixed with 0.2 uM fura- 2AM and incubated for 30 min at 37° C. in HEPES buffered Hanks solution without calcium or magnesium. Fifteen minutes before the assay, the cell suspension was transferred to a curvette containing a stir bar and calcium was added to 1 mM. The cell suspension was incubated with stirring at 37° C. Assays were terminated within 5 h of cell purification and a standard control response was obtained periodically to insure that the cell responses were not changing over the time of the experiment. The amount of fluorescence was determined using an SLM 8000 spectrofluorometer (SLM-Aminco Instruments, Urbana, Ill.). Curvettes were placed in the fluorometer and after obtaining a baseline for 10 sec, the C5a receptor antagonists to be tested for antagonistic properties were added and any change in fluoresence excitation ratio of 340 nm/380 nm (emission of 510 nm) was measured. Forty seconds after analogue addition, a challenge dose of C5a was added to a final concentration of 100 pM and the resulting change in excitation ratio was measured.
IC50 values were used as a measure of antagonist potency. These values are defined as the concentration of C5a analogue needed to reduce the calcium rise response of the 100 pM C5a challenge dose by 50%. EC50 values were used as a measure of agonist potency. […]

[3] = tested on: New Zealand White rabbits (C5a-induced enhancement in vascular permeability); assay: Rabbit dermal model of inflammation ([125I]-BSA exudation after intradermal C5a); type: in vivo
Experimental: All experiments were performed on male New Zealand White rabbits weighing 2.5-3.0 kg. The backs; of the rabbits were shaved and 40-50 skin sites were designated with markers of different colors. Different stimuli (i.e., C5a, C5a analogue, C5a+C5a analogue, vehicle control, etc.) were injected intradermally at 0.1 ml/site using a sterile, disposable, 26 gauge, 0.5 in. needle and 1.0 cc tuberculin syringe. I.D. injections were administered in replicates of six, roughly 45 minutes before euthanization. C5a alone was injected at a dose of 50 ng/site, and the C5a receptor antagonists were co-injected at various concentrations with the same dose of C5a. At 20 minutes prior to euthanization, 18-36 uCi of [125I]-labeled bovine serum albumin in 1.0 ml physiological saline were introduced into the systemic circulation via the marginal auricular vein. At 45 minutes, the rabbit was euthanized with an I.V. overdose of sodium pentobarbital. […]
After death, the dorsal skin was excised and pinned to a wooden dissecting board. […] This procedure reduced variation among skin sites and decreased background radioactivity. […] Injection sites were then analyzed for their radioactive content using a Gamma Counter (Genesys).

[4] = tested on: New Zealand White rabbits (C5a-induced neutropenia); assay: C5a-induced neutropenia in the rabbit; type: in vivo; details: i.v. bolus; for Inhibition of C5a-induced neutropenia vs vehicle-treated rabbits: 100 ng C5a i.v.
Experimental: All experiments were performed on male New Zealand White rabbits weighing 2.5-3.0 kg. Rabbits were anesthetized with 10 mg/kg xylazine and 50 mg/kg ketamine administered in combination intramuscularly. A 25 gauge butterfly catheter was inserted in the lateral ear vein to use for infusions. Each blood sample (0.2 ml) was collected from the central ear artery into a plastic syringe fitted with a 25 gauge, 5/8 inch needle and charged with 7.5% EDTA as an anticoagulant. Blood was immediately expressed into a microcentrifuge tubes containing 10 microliters of 7.5% EDTA. An initial arterial blood sample (#1) was obtained and immediately thereafter vehicle or the C5a analogue of Example 8 was infused intravenously (bolus injection). Twenty seconds later, a second blood sample (#2) was obtained and twenty seconds thereafter 100 ng of C5a in 0.2 ml were infused intravenously (bolus injection). Twenty seconds later, a third blood (#3) sample was taken. Thirty minutes later, a second round of blood sample (#4)--20 seconds--C5a infusion--20 seconds--blood sample (#5) was performed. Blood samples were evaluated by automated hematologic analysis (Technicon H*1) using software specific for rabbit blood. Reductions in neutrophil counts (number per milliliter) induced by C5a(C5a-induced neutropenia, determined by comparing blood sample #3 to #2 and #5 to #4) were compared between vehicle-treated and C5a analogue-treated animals.

B1: C5a(1-71,T1M,C27S,Q71C) (protein, UniProt P01031 678-748, looked up, fragment T1M C27S Q71C)
chain: MLQKKIEEIAAKYKHSVVKKCCYDGASVNNDETCEQRAARISLGPRCIKAFTECCVVASQLRANISHKDMC
modifications: C5a anaphylatoxin
- Ki (C5a receptor [1]): 200 pM
- Concentration up to which tested and agonist activity not detected (calcium rise) (C5a receptor [2]): > 3 µM
- ID50 (50% reduction in the radioactivity produced by C5a) ([3]; intradermal co-injection with 50 ng C5a/site): 70 ng/site
- Pro-inflammatory reaction (agonist properties in vivo) ([3]; intradermal, 175 ng/site): did not cause a pro- inflammatory reaction
- Inhibition of C5a-induced neutropenia vs vehicle-treated rabbits ([4]; 30-minute C5a challenge interval): 41%
- Inhibition of C5a-induced neutropenia vs vehicle-treated rabbits ([4]; 40-second C5a challenge interval): 67%
- Effect on baseline neutrophil counts (agonistic, C5a-like properties) ([4]; before C5a challenge): did not alter baseline neutrophil counts from normal
